Results taken from patent US20250361322A1.

Tests used:
[1] = target: human Tissue Factor (TF) (human) (UniProt P13726); assay: cell-based or functional assay
[2] = target: full-length mouse TF with a C-terminal FLAG tag on Flp-In-CHO cells (mouse) (UniProt P20352); assay: flow cytometry on CHO cells expressing mouse TF, MFI at 250 nM antibody
[3] = target: r141-194_h (rat/human chimera) (UniProt P42533); assay: live cell staining, flow cytometry, transfected HEK293
hTF_K149N (human) = hTF_K149N (human) (UniProt P13726); assay: as above
[4] = target: h1-107_r (human/rat chimera); assay: as above
[5] = target: h167-174_r (human/rat chimera) (UniProt P13726); assay: live cell staining (HEK293, flow cytometry)
[6] = target: h159-189_r (human/rat chimera) (UniProt P13726); assay: live cell staining (HEK293, flow cytometry)
[7] = target: h159-174_r (human/rat chimera) (UniProt P13726); assay: live cell staining (HEK293, flow cytometry)
[8] = target: r141-194_h (rat/human chimera) (UniProt P42533); assay: live cell staining (HEK293, flow cytometry)
[9] = target: h108-219_r (human/rat chimera); assay: live cell staining (HEK293, flow cytometry)
[10] = target: h1-107_r (human/rat chimera); assay: live cell staining (HEK293, flow cytometry)
[11] = target: h159-219_r (human/rat chimera); assay: live cell staining (HEK293, flow cytometry)

Sequence of h1-107_r (human/rat chimera) (chain, as listed by the source mutant limits assumed): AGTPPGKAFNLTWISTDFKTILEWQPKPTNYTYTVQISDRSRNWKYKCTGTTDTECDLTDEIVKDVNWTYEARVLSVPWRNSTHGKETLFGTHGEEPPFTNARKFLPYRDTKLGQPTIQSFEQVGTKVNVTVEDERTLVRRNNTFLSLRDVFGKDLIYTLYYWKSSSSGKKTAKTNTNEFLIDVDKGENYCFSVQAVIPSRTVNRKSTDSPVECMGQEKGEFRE
Sequence of h108-219_r (human/rat chimera) (chain, as listed by the source mutant limits assumed): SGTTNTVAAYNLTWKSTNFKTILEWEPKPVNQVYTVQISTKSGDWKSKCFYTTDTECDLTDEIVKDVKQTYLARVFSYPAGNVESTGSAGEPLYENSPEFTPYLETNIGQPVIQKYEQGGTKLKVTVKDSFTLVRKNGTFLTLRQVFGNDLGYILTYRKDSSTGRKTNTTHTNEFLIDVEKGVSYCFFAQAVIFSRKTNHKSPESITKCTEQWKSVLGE

A % GM-CSF at 2.56 nM [1] of 88%, a % GM-CSF at 6.4 nM [1] of 86% and a % GM-CSF at 100 nM [1] of 105% were found for Control in this work. For the same substance, the % IL8 at 2.56 nM [1] was 90%, the % IL8 at 6.4 nM [1] was 88% and the % IL8 at 16 nM [1] was 84%.
An MFI at 250 nM [2] of 7400 was found for IgG1 isotype control (antibody) in this work.
A percent antibody binding to TF construct relative to hTF [3] of 32%, a percent antibody binding to TF construct relative to hTF (hTF_K149N (human)) of 145% and a percent antibody binding to TF construct relative to hTF [4] of 41% were found for “5G9 (humanized TF8-5G9, CNTO 860) (antibody)” in this work. The Percentage antibody binding to TF construct relative to hTF [5] was less than 50%, the Percentage antibody binding to TF construct relative to hTF [6] was less than 50% and the Percentage antibody binding to TF construct relative to hTF [7] was less than 50%. It also gave a Percentage antibody binding to TF construct relative to hTF [8] of less than 50%, a Percentage antibody binding to TF construct relative to hTF [9] of less than 50% and a Percentage antibody binding to TF construct relative to hTF [10] of less than 50%. The Percentage antibody binding to TF construct relative to hTF [11] was less than 50%.
